Paper PMC11166458, “Caskin2 is a novel talin- and Abi1-binding protein that promotes cell motility” (Journal of Cell Science, 2024)

Tested on: Caskin2
Experiment: GFP-Trap pulldown of Caskin2 by GFP-tagged Abi1 constructs in COS-7 cells
Type: binding
Details: western blot
Protocol: For transient expression, COS-7 cells were grown to 70% confluence in 10 cm culture dishes and transfected with plasmid DNAs using the DEAE–dextran method ([Schaapveld et al., 1998]). Briefly, 4.5 µg of plasmid DNA was mixed with 500 µg/ml DEAE–dextran in 2.5 ml PBS. Cells were washed two times with PBS and then incubated for 30 min at 37°C with the DEAE–dextran solution. Subsequently, 80 µM chloroquine was added to the cells in 10 ml DMEM with FCS and cells were incubated at 37°C for 3 h. After aspiration of the medium, the cells were treated with 3 ml of DMEM with FCS containing 10% DMSO for 2.5 min. The DMSO solution was then removed and replaced with fresh medium, after which the cells were further incubated for 48–72 h before analysis.
For analysis of protein in whole-cell lysates, cells were washed three times with cold PBS, lysed in Nonidet P-40 lysis buffer [20 mM Tris-HCl pH 7.5, 100 mM NaCl, 1% NP-40), supplemented with Na3VO4 (1.5 mM), NaF (15 mM), protease inhibitor cocktail (1:1000; Sigma-Aldrich) and phosphatase inhibitor cocktail 3 (1:100; Sigma-Aldrich)] and cleared by centrifugation at 14,000 g for 1 h at 4°C. […]
GFP-Trap pulldown experiments were performed as follows. Cleared lysates containing equal amounts of proteins, as determined by a Pierce™ BCA Protein Assay, were incubated with GFP-Trap agarose beads (Chromotek) in a rotation wheel for 6 h at 4°C. […]

B1: GFP–Abi1-DAWN: GFP-tagged Abi1 mutant harboring the mutations D453A and W455N (protein)
chain: MAELQMLLEEEIPSGKRALIESYQNLTRVADYCENNYIQATDKRKALEETKAYTTQSLASVAYQINALANNVLQLLDIQASQLRRMESSINHISQTVDIHKEKVARREIGILTTNKNTSRTHKIIAPANMERPVRYIRKPIDYTVLDDVGHGVKWLKAKHGNNQPARTGTLSRTNPPTQKPPSPPMSGRGTLGRNTPYKTLEPVKPPTVPNDYMTSPARLGSQHSPGRTASLNQRPRTHSGSSGGSGSRENSGSSSIGIPIAVPTPSPPTIGPAPGSAPGSQYGTMTRQISRHNSTTSSTSSGGYRRTPSVTAQFSAQPHVNGGPLYSQNSISIAPPPPPMPQLTPQIPLTGFVARVQENIADSPTPPPPPPPDDIPMFDDSPPPPPPPPVDYEDEEAAVVQYNDPYADGDPAWAPKNYIEKVVAIYDYTKDKDDELSFMEGAIIYVIKKNDAGNYEGVCNRVTGLFPGNYVESIMHYTD
modifications: left off: GFP, end not stated, kept
notes: GFP-tagged Abi1 mutant harboring the mutations D453A and W455N
Caskin2 precipitation by Abi1 construct: unable to precipitate Caskin2
